What all share (conditions): natural protein; chains chain; remark: other sources report otherwise
Test [1] has as its target T1, wild-type trigger factor, P0A850.
T1 chain: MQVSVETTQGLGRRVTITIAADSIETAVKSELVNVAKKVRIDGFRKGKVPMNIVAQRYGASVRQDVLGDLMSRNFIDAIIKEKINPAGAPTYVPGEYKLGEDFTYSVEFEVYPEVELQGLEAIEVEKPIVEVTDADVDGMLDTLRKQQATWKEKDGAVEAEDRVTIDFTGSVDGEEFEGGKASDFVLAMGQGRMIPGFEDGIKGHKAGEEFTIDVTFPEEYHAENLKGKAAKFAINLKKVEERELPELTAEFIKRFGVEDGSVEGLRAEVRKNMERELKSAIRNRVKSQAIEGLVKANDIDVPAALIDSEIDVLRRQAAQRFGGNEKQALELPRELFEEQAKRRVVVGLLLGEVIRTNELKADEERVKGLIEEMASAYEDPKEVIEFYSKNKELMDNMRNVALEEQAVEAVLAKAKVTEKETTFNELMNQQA
Briefly: native buffer, no denaturant.

For test [2] the target is unchanged. Briefly: 0.26 M GdnHCl.
Test [3] shares this target. In words: 0.06 M GdnHCl.

B1: wild-type trigger factor, P0A850 1-432 (protein)
chain: T1 chain
In the case of B1, the Kd in test [1] was 18.4 µM; in test [2] it was 76 µM; in test [3] it was 29 µM.

The values are drawn from publication PMC9287376.
